According to article PMC3438722, “DNA Binding in High Salt: Analysing the Salt Dependence of Replication Protein A3 from the Halophile Haloferax volcanii” (Archaea, 2012):

T1: HvRPA3 CTD-2 (Haloferax volcanii DS2 (wild-type), UniProt D4GZS1 164-311)
T1 sequence: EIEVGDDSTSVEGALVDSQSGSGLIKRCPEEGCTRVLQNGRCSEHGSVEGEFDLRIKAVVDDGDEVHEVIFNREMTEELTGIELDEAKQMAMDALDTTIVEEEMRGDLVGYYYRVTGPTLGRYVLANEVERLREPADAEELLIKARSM

T2: HvRPA3 CTD-1 (Haloferax volcanii DS2 (wild-type), UniProt D4GZS1 164-311)
T2 sequence: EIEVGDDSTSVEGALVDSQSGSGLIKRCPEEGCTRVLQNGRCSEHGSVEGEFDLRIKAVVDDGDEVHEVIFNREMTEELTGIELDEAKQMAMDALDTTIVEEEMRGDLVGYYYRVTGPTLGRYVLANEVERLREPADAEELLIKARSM

T3: HvRPA3 full length (Haloferax volcanii DS2 (wild-type), UniProt D4GZS1 1-311)
T3 sequence: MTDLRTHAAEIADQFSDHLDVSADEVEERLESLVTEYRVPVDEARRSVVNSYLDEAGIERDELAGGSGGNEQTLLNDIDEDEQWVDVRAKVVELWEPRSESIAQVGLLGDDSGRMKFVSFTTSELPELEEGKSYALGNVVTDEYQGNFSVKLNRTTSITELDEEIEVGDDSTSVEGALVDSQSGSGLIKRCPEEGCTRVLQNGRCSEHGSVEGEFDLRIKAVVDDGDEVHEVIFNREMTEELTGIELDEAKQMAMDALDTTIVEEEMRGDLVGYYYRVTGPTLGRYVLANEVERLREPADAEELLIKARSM

T4: HvRPA3-NTD (OB-fold) (Haloferax volcanii DS2 (wild-type), UniProt D4GZS1 1-163)
T4 sequence: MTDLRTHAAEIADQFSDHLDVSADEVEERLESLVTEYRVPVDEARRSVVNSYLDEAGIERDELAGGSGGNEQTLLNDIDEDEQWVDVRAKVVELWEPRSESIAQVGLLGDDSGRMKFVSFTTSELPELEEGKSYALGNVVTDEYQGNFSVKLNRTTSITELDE


Assays:
[1] = target: the molecule itself; test: SEC; analytical, 10/300 Superdex 200, 50 mM HEPES pH 7.0, 0.2 M KCl; 250 ug protein incubated one hour in the buffer; calibrated with gel filtration standards
[2] = target: the molecule itself; test: SEC; last step of the purification, 26/60 Superdex 200, 50 mM Hepes pH 7.0, 1.0 M NaCl
[3] = target: the molecule itself; test: SEC; analytical, 10/300 Superdex 200, 50 mM HEPES pH 7.0, 1.0 M KCl; 250 ug protein incubated one hour in the buffer; calibrated with gel filtration standards
HvRPA3 CTD-2 [4] = target: T1, HvRPA3 CTD-2; test: analytical SEC; any KCl condition (0.2, 1, 3 M); data not shown; FA: 50 mM HEPES pH 7.0, 10% glycerol, 0.03% BSA, 20 nM Cy5-oligo, 0.2, 1 or 3 M KCl, room temperature 10 min; SEC: 50 mM HEPES pH 7.0, 0.2, 1 or 3 M KCl; EMSA:; details: protein: recombinant; tags: N-terminal 6xHis; single strand
HvRPA3 CTD-1 [5] = target: T2, HvRPA3 CTD-1; test: as above; details: protein: recombinant; tags: N-terminal 6xHis; chain copies: 4; single strand
[6] = target: the molecule itself; test: SEC; analytical, 10/300 Superdex 200, 50 mM HEPES pH 7.0, 1.0 M KCl, with equimolar (monomer equivalent) 18mer ssDNA
HvRPA3 full length [7] = target: T3, HvRPA3 full length; test: fluorescence anisotropy; 3 M KCl; Hill 1.2 ± 0.1; FA: 50 mM HEPES pH 7.0, 10% glycerol, 0.03% BSA, 20 nM Cy5-oligo, 0.2, 1 or 3 M KCl, room temperature 10 min; SEC: 50 mM HEPES pH 7.0, 0.2, 1 or 3 M KCl; EMSA:; details: protein: recombinant; tags: N-terminal 6xHis; label: 5' Cy5; single strand
HvRPA3 full length [8] = target: T3, HvRPA3 full length; test: fluorescence anisotropy; 1 M KCl; Hill 0.9 ± 0.1; monomer equivalents; FA: 50 mM HEPES pH 7.0, 10% glycerol, 0.03% BSA, 20 nM Cy5-oligo, 0.2, 1 or 3 M KCl, room temperature 10 min; SEC: 50 mM HEPES pH 7.0, 0.2, 1 or 3 M KCl; EMSA:; details: protein: recombinant; tags: N-terminal 6xHis; label: 5' Cy5; single strand
HvRPA3-NTD (OB-fold) = target: T4, HvRPA3-NTD (OB-fold); test: fluorescence anisotropy; 1 M KCl; two-site fit, high-affinity site; dimer concentration; FA: 50 mM HEPES pH 7.0, 10% glycerol, 0.03% BSA, 20 nM Cy5-oligo, 0.2, 1 or 3 M KCl, room temperature 10 min; SEC: 50 mM HEPES pH 7.0, 0.2, 1 or 3 M KCl; EMSA:; details: protein: recombinant; tags: N-terminal 6xHis; label: 5' Cy5; single strand
HvRPA3 CTD-2 [9] = target: T1, HvRPA3 CTD-2; test: fluorescence anisotropy; any KCl condition; data not shown; FA: 50 mM HEPES pH 7.0, 10% glycerol, 0.03% BSA, 20 nM Cy5-oligo, 0.2, 1 or 3 M KCl, room temperature 10 min; SEC: 50 mM HEPES pH 7.0, 0.2, 1 or 3 M KCl; EMSA:; details: protein: recombinant; tags: N-terminal 6xHis; label: 5' Cy5; single strand
HvRPA3 CTD-1 [10] = target: T2, HvRPA3 CTD-1; test: as above; details: protein: recombinant; tags: N-terminal 6xHis; chain copies: 4; label: 5' Cy5; single strand

Row | Binder | stoichiometry N [1] | stoichiometry N [2] | stoichiometry N [3] | other results
1 | HvRPA3 C-terminal domain (residues 164-311), second size exclusion peak (CTD-2) (domain or fragment, Haloferax volcanii, UniProt D4GZS1 164-311, looked up, Replication protein A3 (RPA3) of Haloferax volcanii, C-terminal domain residues 164-311, holds the zinc finger motif; Same construct as m3; the peak of lower apparent mass in the last purification step; Holds zinc (0.53 mol/mol); also called HvRPA3-CTD-2; source: E. coli B834 (DE3), purified (ammonium sulphate fractionation, Talon resin, Superdex 200; second of two peaks); not shown: 6xHis, …) EIEVGDDSTSVEGALVDSQSGSGLIKRCPEEGCTRVLQNGRCSEHGSVEGEFDLRIKAVVDDGDEVHEVIFNREMTEELTGIELDEAKQMAMDALDTTIVEEEMRGDLVGYYYRVTGPTLGRYVLANEVERLREPADAEELLIKARSM | 3 | 2 | – | –
2 | HvRPA3 C-terminal domain (residues 164-311), first size exclusion peak (CTD-1) (domain or fragment, Haloferax volcanii, UniProt D4GZS1 164-311, looked up, Replication protein A3 (RPA3) of Haloferax volcanii, C-terminal domain residues 164-311, holds the zinc finger motif; Same construct as m4; the peak of higher apparent mass in the last purification step, concentrated apart; also called HvRPA3-CTD-1; source: E. coli B834 (DE3), purified (ammonium sulphate fractionation, Talon resin, Superdex 200; first of two peaks); not shown: 6xHis, N-terminal, …) EIEVGDDSTSVEGALVDSQSGSGLIKRCPEEGCTRVLQNGRCSEHGSVEGEFDLRIKAVVDDGDEVHEVIFNREMTEELTGIELDEAKQMAMDALDTTIVEEEMRGDLVGYYYRVTGPTLGRYVLANEVERLREPADAEELLIKARSM | 7 | 4 | 5 | –
3 | Replication protein A3 from Haloferax volcanii, full length (natural protein, UniProt D4GZS1 1-311, looked up, Replication protein A3 (RPA3) of Haloferax volcanii, amplified from genomic DNA of wild-type DS2; full length, residues 1-311 (the CTD construct ends at 311); Oligomeric state depends on the salt concentration; Tagged protein has a predicted MW of 35.4 x 10^3; also called HvRPA3; RPA3; source: E. coli B834 (DE3), purified (ammonium sulphate fractionation, Talon resin, Superdex 200); not shown: …) MTDLRTHAAEIADQFSDHLDVSADEVEERLESLVTEYRVPVDEARRSVVNSYLDEAGIERDELAGGSGGNEQTLLNDIDEDEQWVDVRAKVVELWEPRSESIAQVGLLGDDSGRMKFVSFTTSELPELEEGKSYALGNVVTDEYQGNFSVKLNRTTSITELDEEIEVGDDSTSVEGALVDSQSGSGLIKRCPEEGCTRVLQNGRCSEHGSVEGEFDLRIKAVVDDGDEVHEVIFNREMTEELTGIELDEAKQMAMDALDTTIVEEEMRGDLVGYYYRVTGPTLGRYVLANEVERLREPADAEELLIKARSM | 4 | – | 2 | –
4 | GCGTGTGTGGTGGTGTGC (ssDNA) [18mer ssDNA (SEC)] | – | – | – | binding result (HvRPA3 CTD-2 [4]): no binding; binding result (HvRPA3 CTD-1 [5]): no binding
5 | HvRPA3 N-terminal domain (residues 1-163) (domain or fragment, Haloferax volcanii, UniProt D4GZS1 1-163, looked up, Replication protein A3 (RPA3) of Haloferax volcanii, N-terminal domain residues 1-163, holds the OB-fold; Tagged construct has a predicted MW of 18.9 x 10^3; also called NTD; HvRPA3-NTD; source: E. coli B834 (DE3), purified (ammonium sulphate fractionation, Talon resin, Superdex 200); not shown: 6xHis, N-terminal, kept) MTDLRTHAAEIADQFSDHLDVSADEVEERLESLVTEYRVPVDEARRSVVNSYLDEAGIERDELAGGSGGNEQTLLNDIDEDEQWVDVRAKVVELWEPRSESIAQVGLLGDDSGRMKFVSFTTSELPELEEGKSYALGNVVTDEYQGNFSVKLNRTTSITELDE | 3 | – | – | stoichiometry N [6]: 2
6 | GCGTGTGTGGTGGTGTGC (ssDNA) [Cy5-18mer ssDNA (FA)] | – | – | – | Kd (HvRPA3 full length [7]): 24.1 ± 2.9 nM; Kd (HvRPA3 full length [8]): 53.9 ± 18.3 nM; Kd (HvRPA3-NTD (OB-fold)): 4.1 ± 7.9 nM; binding result (HvRPA3 CTD-2 [9]): no binding; binding result (HvRPA3 CTD-1 [10]): no binding
